# Test results as given in patent US7078385B2, “Methods of inhibiting angiogenesis with fragments and homologs of troponin subunit I” (Boston Life Sciences, Inc., priority 1996, dated 2006).
# B1: rTnI: recombinant human fast-twitch skeletal muscle troponin I expressed in E. coli, about 21 kDa (SEQ ID NO:17) (protein, listed as Homo sapiens)
# chain: MGDEEKRNRAITARRQHLKSVMLQIAATELEKEESRREAEKQNYLAEHCPPLHIPGSMSEVQELCKQLHAKIDAAEEEKYDMEVRVQKTSKELEDMNQKLFDLRGKFKRPPLRRVRMSADAMLKALLGSKHKVCMDLRANLKQVKKEDTEKERDLRDVGDWRKNIEEKSGMEGRKKMFESES
# How the values were obtained:
# [1] = system: capillary EC from bovine adrenal cortex, bFGF-stimulated; assay: bFGF-stimulated capillary EC proliferation (Example 8); type: cell-based; settings: bFGF as mitogen
# Experimental: (§1) Capillary EC, isolated from bovine adrenal cortex (Folkman, et al., 1979, Proc. Natl. Acad. Sci. USA 76, 5217–5221) were obtained from Children's Hospital (Boston, Mass.). […] Cells were maintained in culture in DME (Dulbecco's Modified Eagle's Medium, Gibco Laboratories) with 10% calf serum (Hyclone) (DME/10) supplemented with 3 ng/ml bFGF or Vascular Endothelial Growth Factor (VEGF) in preparation for these assays.
# (§2) Briefly, capillary EC (2,000 cells per well) were plated on gelatinized 96-Well culture plates in DMEM supplemented with 5% (v/v) calf serum and incubated for 24 hours. On day 2, cells were treated with bFGF (Scios Nova; 1 ng/ml) and challenged with the test fractions and/or with purified TnI. For experiments in which VEGF was used as the mitogen, 800 cells per well were plated and allowed to incubate for 3 hours before VEGF (Biomedical Technologies Incorporated; 30 ng/ml) and TnI was added. Control wells contained cells alone and cells stimulated with bFGF or VEGF. On day 5, growth medium was removed from the plates; cells were lysed in buffer containing the detergent Triton x-100 and the phosphatase substrate p-nitrophenyl phosphate. […] Color development was determined using a rapid multiwell plate reader (Dynatech MR 5000) (Moses, et al., 1990, Science 2488, 1408–1410; Moses, et al., 1990, J. Cell. Biol. 119, 474–481; Connolly, et al., 1986, Anal. Biochem. 152, 136–140).
# [2] = system: capillary EC DNA synthesis; assay: Tritiated thymidine incorporation, capillary EC DNA synthesis; type: cell-based, bovine; settings: tritiated thymidine assay
# Experimental: On day one, 5,000 bovine capillary endothelial cells in DMEM/10% CS/1% GPS are plated onto each well of a 96-well pregelatinized tissue culture plate. On day two, the cell media is changed to DMEM, 2% CS, 1% GPS, 0.5% BSA (complete medium), supplemented with 10 μl of 1 mg/ml “cold” thymidine per 50 ml of medium. On day three, test samples in complete medium are added in duplicate. Additionally, […] (bFGF) is added to each well except for the appropriate controls, to a final concentration of 0.2 ng/well. On day four, 5 μl of 1:13 diluted ^3H-Thymidine stock is added to each well and the plate is incubated for 5–6 hours. Following incubation, the medium is aspirated, and the remainder is rinsed once with PBS, then twice for 5 minutes each with methanol followed by two rinses each for 10 minutes with 5% TCA. The cells are then rinsed with water three times, dried to the plate, and 100 μl of 0.3 N NaOH is added to each well. The contents of the well are then transferred to the scintillation counter vials and 3 mls of Ecolume added to each vial. Samples are then counted on the scintillation counter.
# [3] = system: bovine aortic smooth muscle cells (SMC); assay: Cell specificity: PDGF-BB-stimulated smooth muscle cell proliferation, electronic cell counting; type: cell-based; settings: doses over 5× higher than the IC50 for capillary EC
# Experimental: BALB/c mouse 3T3 cells were maintained in DME/10, L-glutamine(292 μg/ml) as previously described (Klagsbrun, et al., 1977, Exp. Cell Res. 105, 99–108). Bovine aortic smooth muscle cells (SMC), isolated by explant from the medial layer of bovine aortas, were obtained from Children's Hospital (Boston, Mass.). These cells were cultured in DME/10 on uncoated tissue culture plastic as previously described (D'Amore and Smith, 1993, Growth Factors 8, 61–75).
# To determine whether the proliferation of bovine aortic SMC and Balb c/3T3 cells was inhibited by TnI, the following assays were conducted. SMC were plated into multiwell dishes (2.1 cm^2/well) at a density of 10,000 cells/well. After allowing the cells to attach overnight, fresh media was applied containing either 3 ng/ml PDGF-BB alone or in combination with increasing concentrations of purified TnI. Following incubation for 72 hrs at 37° C. in 10% CO2, the cells were rinsed in PBS, detached by trypsinization and counted electronically.
# [4] = system: BALB/c mouse 3T3 cells; assay: Cell specificity: tritiated thymidine incorporation in quiescent 3T3 cells; type: cell-based; settings: doses over 5× higher than the IC50 for capillary EC
# [5] = system: embryonic neovascularization of the chick chorioallantoic membrane; assay: Chick chorioallantoic membrane (CAM) assay; type: in vivo; settings: 48 h
# Experimental: All procedures were carried out in a laminar flow hood under sterile conditions. The eggs were stored in a Favorite Egg Incubator (Leahy) at 37° C. and 65% relative humidity. On day 3 of development, fertilized White Leghorn eggs (SPAFAS) were cracked and the embryos removed from their shells and placed in plastic petri dishes. On day 6, test substances including native rabbit TnI (Greaser and Gergely, 1971, J. Biol. Chem. 246, 4226–4233) and recombinant human TnI and appropriate buffer controls were mixed in methylcellulose, disks and applied to the surfaces of the growing CAMs above the dense subectodermal plexus.
# [6] = system: bFGF-induced corneal angiogenesis; assay: Mouse corneal pocket assay; type: in vivo, C57BL/6 mice; settings: 50 mg/kg subcutaneous every 12 hours, sixth day of treatment
# Experimental: Briefly, pellets composed of bFGF (40 ng/ml), sucrose octasulfate and Hydron were implanted into corneal micropockets of six C57BL/6 mice as previously described (U.S. Pat. No. 5,837,680 to Moses et al.). Troponin I (50 mg/kg) was administered systemically every 12 hours by subcutaneous injection. On the sixth day of treatment, corneal angiogenesis was evaluated using slit lamp microscopy and photographed.
# [7] = system: B16-BL6 melanoma lung metastases; assay: B16-BL6 melanoma lung metastasis model; type: in vivo, C57BL/6 mice
# Experimental: Murine melanoma B16-BL6 were cultured in RPMI 1640 (Gibco) supplemented with 10% (v/v) fetal calf serum (Hyclone), L-glutamine and NaHCO3. Cells were washed with EBSS (Gibco) and trypsinized for 3 to 5 mm with 0.25% TRL/0.2% EDTA to which culture buffer was added for washing. This preparation was then centrifuged for 10 mm at 1000 rpm, the cell pellet resuspended in fresh culture media, cell number determined using a coulter counter and cell viability determined with trypan blue (100% viability). The cell suspension was adjusted to […] for implantation. B16-BL6 cells (5×10^5/0.2 ml) were injected into the tail veins of C57BL/6 mice (approximately 6–7 weeks old). One day following tumor cell inoculation, mice were treated with rTnI systemically, twice per week, with a dose of either 1 mg/kg (n=10) or 20 mg/kg (n=10) or vehicle (150 mM NaCl, 20 mM citrate, pH3) over, a 28 day period. On day 30, animals were sacrificed, the number of lung surface metastases counted and the lungs weighed.
# [8] = system: capillary EC from bovine adrenal cortex, VEGF-stimulated; settings: read-out: IC50, capillary EC proliferation; VEGF as mitogen
# Experimental: as §1, §2
molecule,measurement,setting,value
B1,IC50,[1],~65 nM
same,IC50,[2],~240 nM
same,Suppression of growth of bovine aortic smooth muscle cells,[3],did not suppress the growth
same,Suppression of growth of Balb/c 3T3 cells,[4],did not suppress the growth
same,Eggs with avascular zone (inhibition of embryonic neovascularization),[5]; 130 picomoles,66%
same,Eggs with avascular zone (inhibition of embryonic neovascularization),[5]; approximately 380 picomoles,100%
same,Inhibition of bFGF-induced corneal angiogenesis (in words),[6],significantly inhibited
same,Inhibition of lung metastases,"[7]; 1 mg/kg systemically twice weekly, 28 days, day 30",52%
same,Inhibition of lung metastases,"[7]; 20 mg/kg systemically twice weekly, 28 days, day 30",64%
same,"Number of lung surface metastases (mean, SEM)","[7]; 20 mg/kg twice weekly, day 30",25.0+/−7.5
same,Toxicity (weight or appetite loss),"[7]; 1 or 20 mg/kg twice weekly, 28 days",no observed toxicity
same,"Lung weights, treated versus control groups","[7]; 1 or 20 mg/kg twice weekly, day 30",comparable
same,IC50,[8],~1.5 nM
